Changes are numbered by the printed parent chain. In names and notes the source's numbering stands.
B1: H4H2292S (antibody, human IgG4, V domains shown)
VH: EVQLVESGGGVVQPGRSLRLSCAASGFTFSSYGMHWVRQAPGKGLEWVSFIWYDGSNKYYADSVKGRFTISRDNSKNTLYLQMNSLTAEDTAVYYCARRGILTGTTAFDIWGQGTMVTVSS
VL: DIQMTQSPSSLSASVGDRVTITCRASQSISSYLNWYQQKPGKAPKLLIYAASSLQSGVPSRFSGSGSGTDFTLTIRSLIPEDFATYYCQQTYNTPFTFGPGTKVEIK
notes: human IgG4 Fc (H4H)
B2: H4H2350P (antibody, human IgG4, V domains shown)
VH: QVQLQESGPGLVKPSETLSLTCTVSGGSISTYYWSWFRQPPGKGLEWIGYIYYSGSTNHNPSLKSRVTISVDTSKNQFSLKLRSVTAADTAVYYCARVGPVGWGSWGNFDYWGQGTLVTVSS
VL: DIQLTQSPSFLSASVGDRVTITCWASQGISSYLAWSQQKPGKAPKLLIYAASTLQSGVPSRFSGSGSGTEFTLTISSLQPEDFATYYCQQLNSYPWTFGQGTKVEIK
notes: human IgG4 Fc (H4H)
B3: H4H2344S (antibody, human IgG4, V domains shown)
VH: EVQLVESGGGVVQPGRSLRLSCAASGFSFSDYVMHWVRQAPGKGLEWVASIWFDGSNEFYADSVKGRFTISRDNSKNTLFLQMNSLRAEDTAVYYCAKKGVLVATSAFDIWGQGTMVTVSS
VL: DIQMTQSPSSLSASVGDRVTITCRASQSINNYLNWYHQKPGKAPKLLIYAASSLQSGVPSRFSGSGSGTDYTLTISSLQPEDFGNYYCQQSYRTSMYTFGQGTKVEIK
notes: human IgG4 Fc (H4H)
B4: H4H2346S (antibody, human IgG4, V domains shown)
VH: B3 VH with E1Q
VL: B3 VL with D1E, Q3V
notes: human IgG4 Fc (H4H)
B5: H4H2293P (antibody, human IgG4, V domains shown)
VH: B3 VH with E1Q, F59L, D109H
VL: B3 VL with D1A, S28N, K45N, R93S, V105L
notes: human IgG4 Fc (H4H)
B6: H4H2354S (antibody, human IgG4, V domains shown)
VH: B3 VH with E1Q
VL: B3 VL with M4L
notes: human IgG4 Fc (H4H); also called H4H2354S-1
B7: H4H2294S (antibody, human IgG4, V domains shown)
VH: EVQLVESGGGLVQPGGSLRLSCAASGFTFSSYAMSWVRQAPGKGLEWVSVISGSGGSTYYADAVKGRFTISRDNSKHTLYLQMNSLRAEDTAVYYCTKPSSYSSSNFYYGMDVWGQGSTVTVSS
VL: DIQLTQSPSSVSASVGDRVTITCRASQGISSWLAWYQQKPGKAPKLLIYAASSLQSGVPSRFSGSGSGTDFTLTISSLQPEDFATYYCQQTNSFPFPFGPGTKVDIK
notes: human IgG4 Fc (H4H)
B8: H4H2342P (antibody, human IgG4, V domains shown)
VH: EVQLLESGGGLVQPGGSLRLSCAASGFTFSTYAMSWVRQAPGKGLEWVSAIRGNGVNTYYGDSMKGRFTISRDNSKDTLYLQMNSLRAEDTAVYYCAKNKWELLVFEYWGQGTLVTVSS
VL: DIQMTQSPSSLSASVGDRVTITCRASQDISNYLAWYQQKPGKVPKLLIYAASTLQSGVPFRFSGSGSGTDFTLTISSLQPEDVATYYCQKYNSAPPFGPGTKVDIK
notes: human IgG4 Fc (H4H)
B9: H4H2212N (antibody, human IgG4, V domains shown)
VH: EVQLLESGGGLVQPGGSLRLSCAASGFTFSSYAMSWVRQGPGKGLEWVSGISGSGGSTYNADSVKGRFTISRDNSKNTLYLQMNSLRAEDTAVYYCAKDSGTYWYYFDYWGQGILVTVSS
VL: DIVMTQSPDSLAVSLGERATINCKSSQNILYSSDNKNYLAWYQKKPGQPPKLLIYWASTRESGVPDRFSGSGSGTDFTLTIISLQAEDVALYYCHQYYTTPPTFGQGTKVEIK
notes: human IgG4 Fc (H4H)
B10: H4H2243N2 (antibody, human IgG4, V domains shown)
VH: QVQLVQSGAEVKKPGASVKVSCKASGYTFTSYGIIWVRQAPGQGLEWMGWISGYNGNTNYAQNLQGRVTMTTDTSTTTAYMELRSLRSDDTAVYYCARWGIATRPYYYYGMDVWGQGTTVTVSS
VL: DIQMTQSPSSLSASVGDRVTITCRASQDITNYLAWFQQKPGKAPKSLIYAASSLQSGVPSKFSGSGSGTDFTLTISSLQPEDFATYYCQQYNSYPPTFGPGTKVDIK
notes: human IgG4 Fc (H4H)

Experiments:
[1] = target: T1, cynomolgus GFRα3 on HEK293/MfGFRα3/MfRet/SRE-Luc cells (cynomolgus, UniProt O60609 1-400 (human entry), limits assumed); assay: cell-based or functional assay
T1 chain: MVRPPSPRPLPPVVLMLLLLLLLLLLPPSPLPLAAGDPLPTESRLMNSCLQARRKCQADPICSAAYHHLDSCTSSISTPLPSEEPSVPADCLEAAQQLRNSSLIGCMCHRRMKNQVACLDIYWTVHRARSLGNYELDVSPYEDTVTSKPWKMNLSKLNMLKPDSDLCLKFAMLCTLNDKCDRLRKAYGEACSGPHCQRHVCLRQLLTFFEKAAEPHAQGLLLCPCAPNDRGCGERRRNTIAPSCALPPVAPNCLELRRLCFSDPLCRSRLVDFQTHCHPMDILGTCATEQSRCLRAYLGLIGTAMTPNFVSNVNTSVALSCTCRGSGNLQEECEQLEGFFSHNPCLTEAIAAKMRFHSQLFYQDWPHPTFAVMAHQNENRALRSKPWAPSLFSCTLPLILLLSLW

[2] = target: T2, human GFRα1 expressed with only a C-terminal human Fc tag (human); assay: BLI Octet, antigen captured on anti-hFc tips
T2 construct: also called hGFRα1-hFc
Experimental: (§1) The ability of anti-GFRα3 antibodies to bind to GDNF-family receptors was assessed using an Octet Red biosensor (Fortebio, Inc.). Antibodies were tested for binding to either human GFRα1 expressed with a C-terminal human Fc tag and a hexahistidine tag (hGFRα1-hFc-6His, R&D Systems #714-GR), human GFRα1 expressed with only a C-terminal human Fc tag (hGFRα1-hFc; SEQ ID: 376), human GFRα2 expressed with a C-terminal human Fc tag and a hexahistidine tag (hGFRα2-hFc-6His, R&D Systems #613-FR), human GFRα3 expressed with a C-terminal human Fc tag (hGFRα3-hFc, SEQ ID:371), or an irrelevant human Fc tagged protein. Antigens were captured onto anti-human Fc sensor tips from 10 ug/mL solutions for 5 minutes. The coated sensor tips were then blocked with a 100 ug/mL solution of irrelevant human Fc antibodies for 5 minutes. Blocked sensor tips were then submerged into wells containing […] of each anti-GFRα3 antibody or buffer alone for 10 minutes. The experiment was performed at 25° C. with a flow rate of 1000 rpm using HBST+BSA buffer (10 mM HEPES, 150 mM NaCl, 3 mM EDTA, 0.05% w/v Surfactant P20, 0.1 mg/mL BSA, pH 7.4). The binding response (measured in units of nm) at each step of the experiment was monitored and recorded.

[3] = target: T3, human GFRα2 expressed with a C-terminal human Fc tag and a hexahistidine tag (human, UniProt O00451 22-441, limits assumed); assay: BLI Octet, antigen captured on anti-hFc tips
T3 construct: bought protein; also called hGFRα2-hFc-6His; hGFRα2-hFc-6his
T3 sequence (looked up): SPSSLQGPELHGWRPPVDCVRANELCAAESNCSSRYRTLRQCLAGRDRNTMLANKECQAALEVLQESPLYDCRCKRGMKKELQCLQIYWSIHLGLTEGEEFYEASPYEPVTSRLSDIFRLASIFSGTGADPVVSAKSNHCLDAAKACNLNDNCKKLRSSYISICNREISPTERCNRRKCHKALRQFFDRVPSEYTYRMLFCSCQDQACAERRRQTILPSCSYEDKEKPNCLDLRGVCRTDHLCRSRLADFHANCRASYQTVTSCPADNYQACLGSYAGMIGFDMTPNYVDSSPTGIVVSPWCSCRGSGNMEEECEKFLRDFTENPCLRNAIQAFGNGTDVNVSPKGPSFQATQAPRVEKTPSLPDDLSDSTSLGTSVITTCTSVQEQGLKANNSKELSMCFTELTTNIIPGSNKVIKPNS
Experimental: as §1

[4] = target: T4, human GFRα3 expressed with a C-terminal hFc tag (human); assay: BLI Octet, antigen on anti-hFc tips, 100 ug/mL Ab
T4 construct: also called hGFRα3-hFc
T4 sequence (chain, as listed by the source limits assumed): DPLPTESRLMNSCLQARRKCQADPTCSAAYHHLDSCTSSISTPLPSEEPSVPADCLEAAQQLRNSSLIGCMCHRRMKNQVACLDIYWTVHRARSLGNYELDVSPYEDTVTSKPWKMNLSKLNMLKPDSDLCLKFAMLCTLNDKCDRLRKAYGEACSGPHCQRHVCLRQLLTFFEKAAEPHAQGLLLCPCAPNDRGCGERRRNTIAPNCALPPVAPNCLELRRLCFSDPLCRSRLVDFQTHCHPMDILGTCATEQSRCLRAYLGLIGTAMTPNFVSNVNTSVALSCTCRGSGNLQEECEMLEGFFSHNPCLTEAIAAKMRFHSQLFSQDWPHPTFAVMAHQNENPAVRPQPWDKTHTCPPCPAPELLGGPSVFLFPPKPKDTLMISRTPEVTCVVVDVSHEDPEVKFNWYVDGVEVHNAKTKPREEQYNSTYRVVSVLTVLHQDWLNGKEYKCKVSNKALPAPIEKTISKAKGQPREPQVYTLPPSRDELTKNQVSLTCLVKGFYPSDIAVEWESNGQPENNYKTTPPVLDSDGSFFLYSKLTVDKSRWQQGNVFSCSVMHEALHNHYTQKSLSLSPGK
Experimental: as §1

[5] = target: T5, human GFRα1 expressed with a C-terminal human Fc tag and a hexahistidine tag (human, UniProt P56159 25-429, limits assumed); assay: BLI Octet, antigen on anti-hFc tips, 100 ug/mL Ab
T5 construct: bought protein; also called hGFRα1-hFc-6His; hGFRα1-hFc-6his
T5 sequence (looked up): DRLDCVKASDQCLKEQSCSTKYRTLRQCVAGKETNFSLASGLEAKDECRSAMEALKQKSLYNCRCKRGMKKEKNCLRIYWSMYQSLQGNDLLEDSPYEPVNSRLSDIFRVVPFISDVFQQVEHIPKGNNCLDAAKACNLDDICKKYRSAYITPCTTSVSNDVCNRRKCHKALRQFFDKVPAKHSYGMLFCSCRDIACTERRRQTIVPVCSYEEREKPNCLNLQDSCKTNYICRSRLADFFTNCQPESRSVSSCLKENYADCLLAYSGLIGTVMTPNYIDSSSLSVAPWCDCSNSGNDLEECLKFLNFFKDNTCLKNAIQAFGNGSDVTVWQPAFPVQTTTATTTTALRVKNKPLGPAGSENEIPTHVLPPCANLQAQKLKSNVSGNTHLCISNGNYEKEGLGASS
Experimental: as §1

[6] = target: T3, human GFRα2 expressed with a C-terminal …; assay: BLI Octet, antigen on anti-hFc tips, 100 ug/mL Ab
Experimental: as §1

[7] = target: T4, human GFRα3 expressed with a C-terminal …; assay: blocking ELISA 1, hGFRα3-hFc to coated hARTEMIN-mmH
Experimental: A constant amount of human GFRα3 fused with a C-terminal human Fc tag (hGFRα3-hFc; SEQ ID:371) at 120 pM was pre-mixed with varying amounts of antibodies, ranging from 0 to ˜10 nM in serial dilutions, followed by an 1 hour incubation at room temperature (RT) to allow antibody-hGFRα3-hFc binding to reach equilibrium. The equilibrated sample solutions were then transferred to the hARTEMIN-mmH-coated plate. […] Absorbance was recorded at 450 nm on a Victor X5 plate reader (Perkin Elmer) to determine the amount of free hGFRα3-hFc in the pre-equilibrated hGFRα3-hFc-antibody solutions that was able to bind to the plate coated with hARTEMIN-mmH. IC₅₀ values, defined as the concentration of antibody required to reduce the signal from a constant concentration of hGFRα3-hFc by 50%, were calculated from the data using Prism software from GraphPad. The absorbance measured at the constant amount of 120 pM hGFRα3-hFc in the absence of anti-GFRα3 antibody is defined as 0% blocking and the absorbance with no added hGFRα3-hFc is defined as 100% blocking. The observed absorbance in the wells containing the highest antibody concentration was used to calculate the maximum blocking percent shown in the table.

Binder | IC50 (SRE-luc, HEK293/MfGFRα3/MfRET cells, 500 pM human ARTEMIN-MMH) [1] [nM] | binding result [2] | binding result [3] | Bound (nm) [4] [nm] | Bound (nm) [5] [nm] | Bound (nm) [6] [nm] | % max blocking [7] [%] | IC50 [7] [nM]
B1 | 1.5 | no binding (tested: 100 ug/mL) | no binding (tested: 100 ug/mL) | 1.04 | 0.03 | 0.05 | 89 | 0.723
B2 |  |  |  |  |  |  | 93 | 0.496
B3 |  |  |  |  |  |  | 94 | 0.133
B4 |  |  |  |  |  |  | 92 | 0.0978
B5 |  |  |  |  |  |  | 93 | 0.26
B6 |  |  |  |  |  |  | 92 | 0.116
B7 | 0.7 | no binding (tested: 100 ug/mL) | no binding (tested: 100 ug/mL) | 1.17 | 0.03 | 0.06 |  | 
B8 | 2.5 | no binding (tested: 100 ug/mL) | no binding (tested: 100 ug/mL) | 1.59 | 0.08 | 0.12 |  | 
B9 | 1.8 | no binding (tested: 100 ug/mL) | no binding (tested: 100 ug/mL) | 1.18 | -0.01 | 0.02 | 81 | 0.0438
B10 | 0.8 | no binding (tested: 100 ug/mL) | no binding (tested: 100 ug/mL) | 1.11 | 0.03 | 0.06 |  | 

From patent US20140056903A1 (Regeneron, published 2014)
